Measured values taken from article PMC8664833.

How the values were obtained:
[1] = target: ZAP-S (short isoform of zinc-finger antiviral protein) (human, UniProt Q7Z2W4-2 1-699); test: MST; 5 mM Mg2+; conditions: protein: recombinant; tags: N-terminal 6xHis-SUMO; label: 3' pCp-Cy5; pseudoknot (SL1, SL2, SL3)
IMP3 (IGF2BP3) = IMP3 (IGF2BP3) (UniProt O00425 1-579); test: MST; 5 mM Mg2+; conditions: protein: recombinant; tags: His-SUMO; label: 3' pCp-Cy5; pseudoknot (SL1, SL2, SL3)
Chain of IMP3 (IGF2BP3) (O00425 whole entry): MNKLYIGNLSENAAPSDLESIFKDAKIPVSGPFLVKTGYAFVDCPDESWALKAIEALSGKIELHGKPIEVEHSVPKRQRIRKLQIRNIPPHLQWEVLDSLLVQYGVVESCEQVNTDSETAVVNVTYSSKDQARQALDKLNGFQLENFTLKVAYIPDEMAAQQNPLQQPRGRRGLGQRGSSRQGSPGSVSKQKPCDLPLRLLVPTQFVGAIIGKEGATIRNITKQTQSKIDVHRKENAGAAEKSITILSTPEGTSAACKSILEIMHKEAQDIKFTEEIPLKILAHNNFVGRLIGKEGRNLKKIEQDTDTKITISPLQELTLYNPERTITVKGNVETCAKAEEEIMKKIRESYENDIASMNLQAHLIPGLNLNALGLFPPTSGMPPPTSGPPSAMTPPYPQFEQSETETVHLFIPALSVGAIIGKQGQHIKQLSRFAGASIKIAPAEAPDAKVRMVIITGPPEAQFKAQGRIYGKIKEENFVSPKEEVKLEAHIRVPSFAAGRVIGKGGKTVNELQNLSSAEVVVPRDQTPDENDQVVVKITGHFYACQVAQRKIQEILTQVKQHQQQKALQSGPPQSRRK

Chain of ZAP-S (short isoform of zinc-finger antiviral protein) (Q7Z2W4 other isoform, or with tags, fused parts or gaps): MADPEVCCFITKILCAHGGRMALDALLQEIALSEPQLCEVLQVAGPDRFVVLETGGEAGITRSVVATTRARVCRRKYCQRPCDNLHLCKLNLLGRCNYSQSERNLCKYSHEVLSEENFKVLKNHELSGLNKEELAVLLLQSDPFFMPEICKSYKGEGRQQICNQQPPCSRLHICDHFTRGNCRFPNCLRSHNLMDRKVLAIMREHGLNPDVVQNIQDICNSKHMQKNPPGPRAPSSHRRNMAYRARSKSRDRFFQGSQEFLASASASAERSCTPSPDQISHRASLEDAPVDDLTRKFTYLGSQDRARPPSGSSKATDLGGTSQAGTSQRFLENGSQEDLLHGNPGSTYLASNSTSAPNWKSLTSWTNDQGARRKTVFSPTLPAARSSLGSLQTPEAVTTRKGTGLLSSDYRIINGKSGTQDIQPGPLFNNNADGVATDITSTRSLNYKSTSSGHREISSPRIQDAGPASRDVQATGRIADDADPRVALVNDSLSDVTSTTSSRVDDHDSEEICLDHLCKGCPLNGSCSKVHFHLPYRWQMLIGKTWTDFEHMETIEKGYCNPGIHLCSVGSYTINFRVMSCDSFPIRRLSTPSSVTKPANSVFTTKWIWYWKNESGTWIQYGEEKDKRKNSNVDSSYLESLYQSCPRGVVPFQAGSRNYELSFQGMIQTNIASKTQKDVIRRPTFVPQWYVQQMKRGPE

B1: Full PRF (WT SARS-CoV-2 -1PRF RNA) (structured_RNA)
RNA: UCGUUUUUAAACGGGUUUGCGGUGUAAGUGCAGCCCGUCUUACACCGUGCGGCACAGGCACUAGUACUGAUGUCGUAUACAGGGCUUUUGACAUCUACAAUGAUAAAGUAGCUG
**Q.** How did the Kd [1] turn out when B1 was run?
**A.** 110 ± 9 nM

**Q.** What about the Kd (IMP3 (IGF2BP3)) of the same binder?
**A.** 806 ± 252 nM
